Test results: patent US20180044433A1 (FONDAZIONE IRCCS INSTITUTO NAZIONALE DEI TUMORI, published 2018)

What was measured:
JMJD6 peptide 1 = target: T1, JMJD6 peptide 1 (human); assay: ELISA on plated peptides (1 ug/well)
T1 construct: also called pool A
T1 peptide: MNHKSKKRIREAKR
Description: (§1) A peptide library was synthesized (Primm), consisting of 57 peptides with 14 amino acids each and whose sequences overlap for 7 amino acids. In order to assay the interaction with collagen, the peptides, were sown in a plate (1 ug/well) and incubated for the whole night at 4° C. […] The reaction was developed and read at 450 nm as indicated above. As control two unrelated peptides were used and the reactivity of the antibodies on the peptides in absence of collagen was evaluated.

JMJD6 peptide 2 = target: T2, JMJD6 peptide 2 (human); assay: ELISA on plated peptides (1 ug/well)
T2 construct: also called pool A
T2 peptide: RIREAKRSARPELK
Description: as §1

JMJD6 peptide 13 = target: T3, JMJD6 peptide 13 (human); assay: ELISA on plated peptides (1 ug/well)
T3 construct: also called pool B
T3 peptide: WTLERLKRKYRNQK
Description: as §1

JMJD6 peptide 14 = target: T4, JMJD6 peptide 14 (human); assay: ELISA on plated peptides (1 ug/well)
T4 construct: also called pool B
T4 peptide: RKYRNQKFKCGEDN
Description: as §1

JMJD6 peptide 16 = target: T5, JMJD6 peptide 16 (human); assay: ELISA on plated peptides (1 ug/well)
T5 construct: also called pool C
T5 peptide: DGYSVKMKMKYYIE
Description: as §1

JMJD6 peptide 17 = target: T6, JMJD6 peptide 17 (human); assay: ELISA on plated peptides (1 ug/well)
T6 construct: also called pool C
T6 peptide: KMKYYIEYMESTRD
Description: as §1

JMJD6 peptide 20 = target: T7, JMJD6 peptide 20 (human); assay: ELISA on plated peptides (1 ug/well)
T7 construct: also called pool D
T7 peptide: DSSYGEHPKRRKLL
Description: as §1

JMJD6 peptide 21 = target: T8, JMJD6 peptide 21 (human); assay: ELISA on plated peptides (1 ug/well)
T8 construct: also called pool D
T8 peptide: PKRRKLLEDYKVPK
Description: as §1

JMJD6 peptide 24 = target: T9, JMJD6 peptide 24 (human); assay: ELISA on plated peptides (1 ug/well)
T9 construct: also called pool E
T9 peptide: QYAGEKRRPPYRWF
Description: as §1

JMJD6 peptide 25 = target: T10, JMJD6 peptide 25 (human); assay: ELISA on plated peptides (1 ug/well)
T10 construct: also called pool E
T10 peptide: RPPYRWFVMGPPRS
Description: as §1

JMJD6 peptide 29 = target: T11, JMJD6 peptide 29 (human); assay: ELISA on plated peptides (1 ug/well)
T11 construct: also called pool F
T11 peptide: NALVQGHKRWCLFP
Description: as §1

JMJD6 peptide 30 = target: T12, JMJD6 peptide 30 (human); assay: ELISA on plated peptides (1 ug/well)
T12 construct: also called pool F
T12 peptide: KRWCLFPTSTPREL
Description: as §1

JMJD6 peptide 38 = target: T13, JMJD6 peptide 38 (human); assay: ELISA on plated peptides (1 ug/well)
T13 construct: also called pool G
T13 peptide: KPGETVFVPGGWWH
Description: as §1

JMJD6 peptide 39 = target: T14, JMJD6 peptide 39 (human); assay: ELISA on plated peptides (1 ug/well)
T14 construct: also called pool G
T14 peptide: VPGGWWHVVLNLDT
Description: as §1

JMJD6 peptide 40 = target: T15, JMJD6 peptide 40 (human); assay: ELISA on plated peptides (1 ug/well)
T15 construct: also called pool G
T15 peptide: VVLNLDTTIAITQN
Description: as §1

JMJD6 peptide 41 = target: T16, JMJD6 peptide 41 (human); assay: ELISA on plated peptides (1 ug/well)
T16 construct: also called pool G
T16 peptide: TIAITQNFASSTNF
Description: as §1

JMJD6 peptide 43 = target: T17, JMJD6 peptide 43 (human); assay: ELISA on plated peptides (1 ug/well)
T17 construct: also called pool H
T17 peptide: PVVWHKTVRGRPKL
Description: as §1

JMJD6 peptide 44 = target: T18, JMJD6 peptide 44 (human); assay: ELISA on plated peptides (1 ug/well)
T18 construct: also called pool H
T18 peptide: VRGRPKLSRKWYRI
Description: as §1

JMJD6 peptide 45 = target: T19, JMJD6 peptide 45 (human); assay: ELISA on plated peptides (1 ug/well)
T19 construct: also called pool H
T19 peptide: SRKWYRILKQEHPE
Description: as §1

JMJD6 peptide 53 = target: T20, JMJD6 peptide 53 (human); assay: ELISA on plated peptides (1 ug/well)
T20 construct: also called pool I
T20 peptide: SEGDGTVHRRKKRR
Description: as §1

JMJD6 peptide 54 = target: T21, JMJD6 peptide 54 (human); assay: ELISA on plated peptides (1 ug/well)
T21 construct: also called pool I
T21 peptide: HRRKKRRTCSMVGN
Description: as §1

[1] = target: T22, JMJD6 5′/FLAG (amino acids 1-305 with C-terminal FLAG) (human, UniProt Q6NYC1 1-305); assay: immunofluorescence on transfected MeWo cells
T22 construct: range 1-305; Expressed in transfected MeWo cells and tested by immunofluorescence; also called JM 5′/FLAG

Measured: binding result

B1: monoclonal antibody P4E11 (antibody, V domains shown, not shown: a dimerising Fc or GST)
VH: QVQLKQSGPGLVQPSQSLSITCTVSGFSLSSYGVHWVRQSPGKGLEWLGVIWRSGNTDYNAVFMSRLSITKDDSKSQVFFKMNSLQADDTAIYYCAKNFRYDVGSWFAYWGQGTLVTVSA
VL: NIMMTQSPSSLAVSAGEKVTMNCKSSQSILYSSNHKNYLAWYQQKPGQSPKLLIYWASTRESGVPNRFTGSGSGTDFTLTISSVQSEDLAVYYCHQYLSSYTFGGGTKLEIKR
no binding: all assays above
